The target in assay [1] is T1, EGF domain 1 and 2 of recombinant human Protein S (human, UniProt P07225 114-200, limits assumed).
T1 construct: domain: EGF domain 1 and 2; also called hEGF1-2
T1 sequence (looked up): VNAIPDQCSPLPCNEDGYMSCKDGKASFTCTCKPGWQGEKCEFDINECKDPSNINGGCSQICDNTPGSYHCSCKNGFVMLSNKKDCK
As to the kind of experiment: ELISA, calcium-free TBS. (In general: An ELISA detects its analyte on a solid surface through an enzyme-linked reagent.)
Method: (§1) After incubation and washing a HRP-labelled goat-anti-mouse IgG secondary antibody (Jackson) was added and the ELISA was developed after incubation and wash by addition of 3,3′,5,5′-Tetramethylbenzidine.

For assay [2], the target named is T2, human Protein S (plasma derived) (human, UniProt P07225 42-676).
T2 construct: Bought plasma-derived human Protein S (Haematologic Technologies or Enzyme Research Laboratories); also called Plasma PS; free Protein S
T2 sequence: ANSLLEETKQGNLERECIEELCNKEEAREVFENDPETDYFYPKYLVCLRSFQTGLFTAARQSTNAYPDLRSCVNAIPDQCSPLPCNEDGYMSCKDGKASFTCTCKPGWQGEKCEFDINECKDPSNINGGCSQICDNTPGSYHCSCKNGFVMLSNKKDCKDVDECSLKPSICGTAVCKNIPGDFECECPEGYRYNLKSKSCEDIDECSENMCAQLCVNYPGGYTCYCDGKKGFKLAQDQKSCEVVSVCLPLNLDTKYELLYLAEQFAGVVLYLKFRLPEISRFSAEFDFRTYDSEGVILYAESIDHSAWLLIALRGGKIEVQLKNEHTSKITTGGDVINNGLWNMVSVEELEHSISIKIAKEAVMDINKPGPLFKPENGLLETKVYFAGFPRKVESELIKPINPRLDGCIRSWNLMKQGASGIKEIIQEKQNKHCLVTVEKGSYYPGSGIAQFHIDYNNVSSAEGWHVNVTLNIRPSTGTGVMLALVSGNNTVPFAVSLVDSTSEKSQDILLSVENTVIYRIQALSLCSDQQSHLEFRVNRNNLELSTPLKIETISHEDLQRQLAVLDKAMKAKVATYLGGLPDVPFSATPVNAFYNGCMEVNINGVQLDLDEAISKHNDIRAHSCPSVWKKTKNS
The assay is described as follows: ELISA, calcium-free TBS.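 Note: binding of mouse antibodies detected by ELISA with an HRP-conjugated goat anti-mouse IgG secondary and TMB substrate development.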
Method: as §1

In assay [3] the target is T3, EGF domain 3 and 4 of recombinant human Protein S (human, UniProt P07225 201-286, limits assumed).
T3 construct: domain: EGF domain 3 and 4; also called hEGF3-4
T3 sequence (looked up): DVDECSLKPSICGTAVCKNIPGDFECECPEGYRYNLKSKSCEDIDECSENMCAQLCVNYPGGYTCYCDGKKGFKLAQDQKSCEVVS
The assay is described as follows: ELISA, calcium-free TBS.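 Note: binding of mouse antibodies detected by ELISA with an HRP-conjugated goat anti-mouse IgG secondary and TMB substrate development.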
Method: as §1

In assay [4] the target is T4, EGF1-4 domains of human Protein S with C-terminal HPC4 tag (human, UniProt P07225 114-286, partial hydroxylation of Asn or Asp in the EGF domains (detected by MS)).
T4 construct: also called hEGF1-4; human Protein S EGF1-4
T4 sequence: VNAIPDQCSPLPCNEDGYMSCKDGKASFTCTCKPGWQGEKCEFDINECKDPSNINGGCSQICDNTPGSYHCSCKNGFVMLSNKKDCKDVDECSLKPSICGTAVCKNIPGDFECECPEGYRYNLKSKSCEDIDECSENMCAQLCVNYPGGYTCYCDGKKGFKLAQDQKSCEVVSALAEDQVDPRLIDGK
The assay is described as follows: ELISA, calcium-free TBS.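 Note: binding of mouse antibodies detected by ELISA with an HRP-conjugated goat anti-mouse IgG secondary and TMB substrate development.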
Method: as §1

Assay [5] concerns the target T5, Gla-domain deleted recombinant human Protein S (human, UniProt P07225 114-676).
T5 construct: also called hPS-dGla; desGla human Protein S
T5 sequence: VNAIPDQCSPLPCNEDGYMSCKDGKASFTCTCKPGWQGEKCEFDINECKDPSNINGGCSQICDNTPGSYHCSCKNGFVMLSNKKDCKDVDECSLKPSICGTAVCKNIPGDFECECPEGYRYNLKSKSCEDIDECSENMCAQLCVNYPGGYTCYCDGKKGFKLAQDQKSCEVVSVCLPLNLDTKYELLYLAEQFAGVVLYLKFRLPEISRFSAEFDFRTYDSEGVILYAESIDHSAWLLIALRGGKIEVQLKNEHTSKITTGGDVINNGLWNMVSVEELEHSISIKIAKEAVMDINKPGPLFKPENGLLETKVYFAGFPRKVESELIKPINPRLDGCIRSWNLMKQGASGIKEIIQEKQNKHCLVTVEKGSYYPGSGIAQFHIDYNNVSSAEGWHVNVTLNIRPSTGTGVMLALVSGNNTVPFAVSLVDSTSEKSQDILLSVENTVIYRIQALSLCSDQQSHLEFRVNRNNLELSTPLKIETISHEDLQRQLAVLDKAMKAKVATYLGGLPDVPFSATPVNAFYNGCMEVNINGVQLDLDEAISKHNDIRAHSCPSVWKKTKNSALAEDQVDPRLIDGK
As to the kind of experiment: ELISA, calcium-free TBS.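 Note: binding of mouse antibodies detected by ELISA with an HRP-conjugated goat anti-mouse IgG secondary and TMB substrate development.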
Method: as §1

The target of assay [6] is T3, EGF domain 3 and 4 of recombinant human …. As to the kind of experiment: ELISA, recombinant antibody.
For assay [7], the target named is T2, human Protein S (plasma derived). The assay is described as follows: ELISA, recombinant antibody.
In assay [8] the target is T4, EGF1-4 domains of human Protein S with …. As to the kind of experiment: ELISA, recombinant antibody.
Assay [9] has as its target T5, Gla-domain deleted recombinant human …. As to the kind of experiment: ELISA, recombinant antibody.
Assay [10] addresses T4, EGF1-4 domains of human Protein S with …. As to the kind of experiment: HX-MS, 4 uM EGF1-4 with 2.4 uM mAb.
Method: The HX experiments were performed on a nanoACQUITY UPLC System with HDX Technology (Waters Inc.) coupled to a Synapt G2 mass spectrometer (Waters Inc.). The Waters HDX system contained a Leap robot (H/D-x PAL; Waters Inc.) operated by the LeapShell software (Leap Technologies Inc/Waters Inc.), which performed initiation of the deuterium exchange reaction, reaction time control, quench reaction, injection onto the UPLC system and digestion time control. The Leap robot was equipped with two temperature controlled stacks maintained at 20° C. for buffer storage and HX reactions and maintained at 2° C. for storage of protein and quench solution, respectively. The Waters HDX system furthermore contained a temperature controlled chamber holding the pre- and analytical columns, and the LC tubing and switching valves at 0.5° C. A separately temperature controlled chamber holds the pepsin column at 25° C. […] The resulting peptides were trapped and desalted on a VanGuard pre-column BEH C18 1.7 μm (2.1×5 mm (Waters Inc.)). Subsequently, the valves were switched to place the pre-column inline with the analytical column, UPLC-BEH C18 1.7 μm (1×100 mm (Waters Inc.)), and the peptides separated using a 9 min gradient of 10-50% B delivered at 40 μl/min from the nanoAQUITY UPLC system (Waters Inc.). The mobile phases consisted of A: 0.1% formic acid and B: 0.1% formic acid in CH₃CN. […]
Assay [11] addresses T2, human Protein S (plasma derived). As to the kind of experiment: SPR (Biacore 3000), Protein S captured on phosphatidylserine vesicles on L1 chip, mAb 250 nM. (In SPR one partner is held on a chip, and binding of the other changes the refractive index at the surface.)

B1: M-hProtS-6F153A2 monoclonal antibody (antibody, mouse IgG1, V domains shown)
VH: QIQLVQSGPELKKPGETVKISCKASGYTFSDYSMHWVKQTPGEGLKWMGWMNTGTGEPTYADDFKGRFAFSLETSATTAHLQINNLKNEDTATYFCARRLYYGTGLAYWGQGTLVTVSA
VL: DIVMTQSHKFMSTSVGDRVSITCKASQDVSTGVAWYQQKPGQSPKLLIFSASSRYSGVPDRFTGSGSGTDFTFTISSVQAEDLAVYYCQQHYSSPRTFGGGTKLEIKR
notes: Tested as antibody purified from hybridoma supernatant; mouse IgG1, kappa
As to B1, the binding result is on record as “no binding” in assay [1]; “binds” in assay [2]; “no binding” in assay [3]; “binds” in assay [4]; “binds” in assay [5].

B2: M-hProtS-2F82A1 monoclonal antibody (antibody, V domains shown)
VH: QVQLQQPGTELVRPGASVKLSCKASGYTFTSYWMNWVQQRPEQGLEWIGRIDPYDTETHYNQKFEDKAILTVDKSSSTAYMQLSSLTSEDSAVYYCARWAGSSYAMDYWGQGTSVTVSS
VL: QIVLTQSPALMSASPGERVTMTCSASSSVSYMYWYQQKPRSSPKPWIYSTSNLASGVPARFSGSGSGTSYSLTISSMEAEDAATYYCQQWSSNPYTFGGGTKLEIKR
notes: Mouse IgG1, kappa; also called mAb 0017
On to B2, for which the binding result in assay [2] is “binds”; in assay [4] it was “binds”; in assay [5], “binds”; in assay [6], “no binding”.

B3: M-hProtS-3F2A1 monoclonal antibody (antibody, V domains shown)
VH: EVQLQESGPSLVKPSQTLSLTCSVTGDSITSGYWNWIRKFPGNKLEYMGYISFSGSTYYNPSLKSRISITRDTSKNQYYLQLNSVTTEDTATYYCAREFAYWGQGTLVTVSA
VL: DIVLTQSPATLSVTPGDSVSLSCRASQSISNNLHWYQQKSHESPRLLIKFVSQSISGIPSRFSGSGSGTDFTLSINSVETEDFGMYFCQQSNSWPWTFGGGTKLEIKR
notes: Mouse IgG1, kappa
Turning to B3, the binding result in assay [2] is recorded as “binds”; in assay [4] it was “binds”; in assay [5], “binds”; in assay [6], “no binding”.

B4: M-hProtS-6F170A2 monoclonal antibody (antibody, V domains shown)
VH: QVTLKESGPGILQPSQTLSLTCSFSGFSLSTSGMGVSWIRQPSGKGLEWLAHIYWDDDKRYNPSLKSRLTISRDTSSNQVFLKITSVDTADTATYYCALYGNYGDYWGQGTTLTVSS
VL: QIVLTQSPAIMSASPGEKVTMTCSASSSVSYMYWYQQKPGSSPRILIYDTSNLASGVPVRFSGSGSGTSYSLTISRMEAEDAATYYCQQWSSYPLTFGAGTKLELKR
notes: Mouse IgG1, kappa
Consider B4, for which the binding result in assay [1] is listed as “no binding”; in assay [7], “binds”; in [8], “binds”; in assay [9], “binds”.

B5: 0322-0000-0114 (antibody, V domains shown)
VH: EVKLEESGGGLVQPGGSMKLSCAASGFTFSDAWMDWVRQSPEKGLEWVAEIRSKANNHATYYAESVKGRFTISRDDSKSGVYLQMNSLRPEDTGIYYCTLTTAFLFDYWGQGTTLTVSS
VL: QIALTQSPAIMSASPGEKVTMTCSVSSSVSYMHWYQQKPGSSPRLWIYDTSNLVSGVPGRFSGSGSGTSYSLTLSSMEAEDAATYYCQQYSGYLYTFGGGTKLEIKR
notes: also called murine-human chimeric antibody of 2F4A1
B5: the binding result in assay [10] and in [11] was “binds” each time.

B6: M-hProtS-2F4A1 monoclonal antibody (antibody, V domains shown)
VH: EVKLEESGGGLVQPGGSMKLSCAASGFTFSDAWMDWVRQSPEKGLEWVAEIRSKANNHATYYAESVKGRFTISRDDSKSGVYLQMNSLRPEDTGIYYCTLTTAFLFDYWGQGTTLTVSS
VL: QIALTQSPAIMSASPGEKVTMTCSVSSSVSYMHWYQQKPGSSPRLWIYDTSNLVSGVPGRFSGSGSGTSYSLTLSSMEAEDAATYYCQQYSGYLYTFGGGTKLEIKR
notes: Mouse IgG1, kappa
As to B6, the binding result in assay [2] is on record as “binds”; in assay [4], “binds”; in assay [5], “binds”; in [6], “no binding”.

B7: M-hProtS-6F138A3 monoclonal antibody (antibody, V domains shown)
VH: QVHLKESGPGLVAPSQNLSITCTVSGFSLTGYGVSWVRQPPGKGLEWLGMIWGDGTTDYNSTLKSRLSISKDNSKSQVFLKMNSLQIDDTARYYCARDPGAMDYWGQGTSVTVSS
VL: QIVLTQSPAIMSASPGEKVTITCSATSSVTYMHWFQQKPGTSPKLWIFSTSNLASGVPPRFSGSGSGTSYSLTISRMEAEDAATYYCQQRSSYPPTFGGGTKLEIKR
notes: Mouse IgG1, kappa; also called 6F138A1/A3
Take B7: the binding result is “no binding” in assay [3], “binds” in assay [7], “binds” in assay [8] and “binds” in [9].

For the origin of these results see patent US20160297892A1 (Novo Nordisk, published 2016).
